We go through one molecule from paper PMC4117941 (Genes & Development, 2014).

In experiment [1] the target is T1, Mcm4 (subunit of the purified MCM2–7 hexamer) (S. cerevisiae, UniProt P30665 1-933).
T1 sequence: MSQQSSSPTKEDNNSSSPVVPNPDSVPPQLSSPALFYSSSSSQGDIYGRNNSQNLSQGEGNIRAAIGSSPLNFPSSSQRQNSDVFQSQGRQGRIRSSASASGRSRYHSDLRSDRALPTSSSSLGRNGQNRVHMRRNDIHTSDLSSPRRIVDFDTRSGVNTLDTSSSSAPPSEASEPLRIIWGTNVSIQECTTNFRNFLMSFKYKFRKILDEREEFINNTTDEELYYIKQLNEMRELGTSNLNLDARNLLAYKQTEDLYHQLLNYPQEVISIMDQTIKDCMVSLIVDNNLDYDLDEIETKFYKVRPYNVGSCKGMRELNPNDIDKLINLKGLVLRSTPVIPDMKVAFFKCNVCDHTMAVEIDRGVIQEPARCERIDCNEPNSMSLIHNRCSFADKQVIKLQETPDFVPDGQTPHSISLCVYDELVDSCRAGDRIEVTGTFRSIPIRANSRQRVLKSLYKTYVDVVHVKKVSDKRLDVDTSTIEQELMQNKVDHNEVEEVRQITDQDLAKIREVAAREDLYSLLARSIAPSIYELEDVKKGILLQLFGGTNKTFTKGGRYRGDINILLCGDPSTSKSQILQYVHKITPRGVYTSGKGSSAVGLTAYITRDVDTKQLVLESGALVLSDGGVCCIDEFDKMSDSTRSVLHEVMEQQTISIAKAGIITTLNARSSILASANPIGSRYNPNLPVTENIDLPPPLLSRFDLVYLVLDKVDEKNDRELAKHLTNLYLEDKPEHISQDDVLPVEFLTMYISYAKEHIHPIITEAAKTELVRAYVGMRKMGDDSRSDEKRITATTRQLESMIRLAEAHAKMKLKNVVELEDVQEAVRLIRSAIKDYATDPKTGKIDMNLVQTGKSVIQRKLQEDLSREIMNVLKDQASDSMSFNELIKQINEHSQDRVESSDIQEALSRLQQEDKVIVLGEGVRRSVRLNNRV
As to the kind of experiment: EM, three-dimensional reconstruction.

In experiment [2] the target is Mcm3 (HA-Mcm3, subunit of the purified MCM2–7 hexamer) (S. cerevisiae, UniProt P24279 1-971). As to the kind of experiment: EM, three-dimensional reconstruction.
Mcm3 (HA-Mcm3, subunit of the purified MCM2–7 hexamer), sequence (P24279 whole entry): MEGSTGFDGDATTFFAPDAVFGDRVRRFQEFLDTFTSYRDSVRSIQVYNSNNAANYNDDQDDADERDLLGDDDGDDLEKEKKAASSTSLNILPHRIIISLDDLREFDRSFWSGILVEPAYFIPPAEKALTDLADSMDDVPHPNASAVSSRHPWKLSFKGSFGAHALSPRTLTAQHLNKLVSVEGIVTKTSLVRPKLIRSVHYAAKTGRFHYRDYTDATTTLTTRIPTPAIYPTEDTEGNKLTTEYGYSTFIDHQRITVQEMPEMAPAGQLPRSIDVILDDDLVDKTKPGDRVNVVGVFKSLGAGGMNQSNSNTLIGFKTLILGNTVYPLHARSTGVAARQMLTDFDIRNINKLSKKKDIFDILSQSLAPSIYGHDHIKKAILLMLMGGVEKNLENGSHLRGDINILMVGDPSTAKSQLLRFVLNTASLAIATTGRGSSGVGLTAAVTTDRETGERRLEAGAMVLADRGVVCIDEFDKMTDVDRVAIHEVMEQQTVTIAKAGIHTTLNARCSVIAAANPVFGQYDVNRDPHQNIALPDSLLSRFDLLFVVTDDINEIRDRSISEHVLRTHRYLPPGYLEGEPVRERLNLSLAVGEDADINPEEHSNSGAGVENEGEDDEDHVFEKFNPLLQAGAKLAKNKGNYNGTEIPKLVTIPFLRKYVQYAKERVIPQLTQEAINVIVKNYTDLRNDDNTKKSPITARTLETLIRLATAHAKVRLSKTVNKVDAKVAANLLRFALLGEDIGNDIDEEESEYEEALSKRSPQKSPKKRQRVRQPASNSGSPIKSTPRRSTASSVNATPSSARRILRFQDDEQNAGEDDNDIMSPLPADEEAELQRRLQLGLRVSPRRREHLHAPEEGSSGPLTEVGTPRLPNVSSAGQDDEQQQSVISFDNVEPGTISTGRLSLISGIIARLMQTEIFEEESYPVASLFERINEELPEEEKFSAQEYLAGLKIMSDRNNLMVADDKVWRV

B1: Mcm7 (subunit of the purified MCM2–7 hexamer) (natural protein)
chain: MSAALPSIQLPVDYNNLFNEITDFLVTFKQDTLSSDATRNENEDENLDAENIEQHLLEKGPKYMAMLQKVANRELNSVIIDLDDILQYQNEKFLQGTQADDLVSAIQQNANHFTELFCRAIDNNMPLPTKEIDYKDDVLDVILNQRRLRNERMLSDRTNEIRSENLMDTTMDPPSSMNDALREVVEDETELFPPNLTRRYFLYFKPLSQNCARRYRKKAISSKPLSVRQIKGDFLGQLITVRGIITRVSDVKPAVEVIAYTCDQCGYEVFQEVNSRTFTPLSECTSEECSQNQTKGQLFMSTRASKFSAFQECKIQELSQQVPVGHIPRSLNIHVNGTLVRSLSPGDIVDVTGIFLPAPYTGFKALKAGLLTETYLEAQFVRQHKKKFASFSLTSDVEERVMELITSGDVYNRLAKSIAPEIYGNLDVKKALLLLLVGGVDKRVGDGMKIRGDINVCLMGDPGVAKSQLLKAICKISPRGVYTTGKGSSGVGLTAAVMKDPVTDEMILEGGALVLADNGICCIDEFDKMDESDRTAIHEVMEQQTISISKAGINTTLNARTSILAAANPLYGRYNPRLSPLDNINLPAALLSRFDILFLMLDIPSRDDDEKLAEHVTYVHMHNKQPDLDFTPVEPSKMREYIAYAKTKRPVMSEAVNDYVVQAYIRLRQDSKREMDSKFSFGQATPRTLLGIIRLSQALAKLRLADMVDIDDVEEALRLVRVSKESLYQETNKSKEDESPTTKIFTIIKKMLQETGKNTLSYENIVKTVRLRGFTMLQLSNCIQEYSYLNVWHLINEGNTLKFVDDGTMDTDQEDSLVSTPKLAPQTTASANVSAQDSDIDLQDA
On to B1, for which the binding result in experiment [1] and in experiment [2] was “binds” throughout.
